Data published in doi:10.1101/212704 (bioRxiv, 2017).

T1: His-tagged MPS1 (UniProt P33981 1-857)
T1 sequence (looked up): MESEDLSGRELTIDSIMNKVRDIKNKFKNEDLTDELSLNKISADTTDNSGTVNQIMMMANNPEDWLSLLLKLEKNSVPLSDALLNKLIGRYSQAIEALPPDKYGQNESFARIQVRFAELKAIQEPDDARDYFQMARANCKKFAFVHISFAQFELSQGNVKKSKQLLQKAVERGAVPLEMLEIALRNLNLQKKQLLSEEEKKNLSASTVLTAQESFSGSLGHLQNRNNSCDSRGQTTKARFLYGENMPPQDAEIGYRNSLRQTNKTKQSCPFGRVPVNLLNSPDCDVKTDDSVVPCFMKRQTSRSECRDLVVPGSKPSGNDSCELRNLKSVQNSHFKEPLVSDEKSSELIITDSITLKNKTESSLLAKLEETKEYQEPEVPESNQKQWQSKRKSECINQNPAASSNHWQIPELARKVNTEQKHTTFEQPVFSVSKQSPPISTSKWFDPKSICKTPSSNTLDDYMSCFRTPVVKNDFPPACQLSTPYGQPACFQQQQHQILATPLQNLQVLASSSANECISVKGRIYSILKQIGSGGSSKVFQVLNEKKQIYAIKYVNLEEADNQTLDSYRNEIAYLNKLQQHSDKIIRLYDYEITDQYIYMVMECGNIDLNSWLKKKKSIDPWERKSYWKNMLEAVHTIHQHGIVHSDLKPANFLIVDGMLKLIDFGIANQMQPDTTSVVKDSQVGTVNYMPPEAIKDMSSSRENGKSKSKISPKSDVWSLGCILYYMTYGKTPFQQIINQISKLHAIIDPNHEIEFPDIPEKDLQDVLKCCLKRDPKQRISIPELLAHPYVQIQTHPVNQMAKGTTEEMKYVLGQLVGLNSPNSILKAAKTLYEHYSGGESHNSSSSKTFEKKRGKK

B1: GST-MAD1-MIM (domain or fragment, human, UniProt Q9Y6D9 485-584, looked up)
chain: SSAEQSFLFSREEADTLRLKVEELEGERSRLEEEKRMLEAQLERRALQGDYDQSRTKVLHMSLNPTSVARQRLREDHSQLQAECERLRGLLRAMERGGTV
B2: GST-tagged MAD1-CTD globular subdomain (638-718 residues) (domain or fragment, human, UniProt Q9Y6D9 638-718, looked up)
chain: GYQIDITTENQYRLTSLYAEHPGDCLIFKATSPSGSKMQLLETEFSHTVGELIEVHLRRQDSIPAFLSSLTLELFSRQTVA
B3: MAD2^LARQ (L13A/R133E/Q134A) (natural protein, UniProt Q13257 2-205, looked up)
chain: ALQLSREQGITARGSAEIVAEFFSFGINSILYQRGIYPSETFTRVQKYGLTLLVTTDLELIKYLNNVVEQLKDWLYKCSVQKLVVVISNIESGEVLERWQFDIECDKTAKDDSAPREKSQKAIQDEIRSVIEAITATVTFLPLLEVSCSFDLLIYTDKDLVVPEKWEESGPQFITNSEEVRLRSFTTTIHKVNSMVAYKIPVND
B4: GST-MAD1-NTD (domain or fragment, human, UniProt Q9Y6D9 1-485, looked up)
chain: MEDLGENTMVLSTLRSLNNFISQRVEGGSGLDISTSAPGSLQMQYQQSMQLEERAEQIRSKSHLIQVEREKMQMELSHKRARVELERAASTSARNYEREVDRNQELLTRIRQLQEREAGAEEKMQEQLERNRQCQQNLDAASKRLREKEDSLAQAGETINALKGRISELQWSVMDQEMRVKRLESEKQELQEQLDLQHKKCQEANQKIQELQASQEARADHEQQIKDLEQKLSLQEQDAAIVKNMKSELVRLPRLERELKQLREESAHLREMRETNGLLQEELEGLQRKLGRQEKMQETLVGLELENERLLAKLQSWERLDQTMGLSIRTPEDLSRFVVELQQRELALKDKNSAVTSSARGLEKARQQLQEELRQVSGQLLEERKKRETHEALARRLQKRVLLLTKERDGMRAILGSYDSELTPAEYSPQLTRRMREAEDMVQKVHSHSAEMEAQLSQALEELGGQKQRADMLEMELKMLKSQSS

Columns and labels:
Assay in all cases: pull-down
[1] = molecular target: 6×His-tagged wild type MAD2 (UniProt Q13257 2-205)
untagged MAD2^L13A = untagged MAD2^L13A (UniProt Q13257 2-205, L13A)
GST-MAD1-NTD = molecular target: B4
His-tagged MPS1 = molecular target: T1, His-tagged MPS1

Binder: B1
binding result [1]: binds
binding result (untagged MAD2^L13A): binds

Binder: B2
binding result (untagged MAD2^L13A): binds

Binder: B3
binding result (GST-MAD1-NTD): binds

Binder: B4
binding result (His-tagged MPS1): binds
